For this assay, the target named is yHsp90-Y24F, bacterially expressed and purified (N-terminally His6-tagged, pRSETA) (Saccharomyces cerevisiae) (UniProt P02829). Kind of assay: ITC.

A word on the pKd: it is the negative decadic logarithm of the Kd, by convention in mol/L.

pKd: −log10 of the molar value.

“Aha1 used for the in vitro binding constants (from UniProt Q12449 1-350) (natural protein)” had a pKd of 5.74.

The record behind these values is paper PMC2824606.
